This note sets out measurements from US20190248902A1 (published 2019).

T1: Cyno ASGR-1 (cynomolgus monkey, UniProt P07306 1-291 (human entry))
T1 construct: Expressed on HEK 293 cells or as membrane prep on beads; cDNA from XP_005582755; also called cynomologus monkey ASGR-1
T1 chain: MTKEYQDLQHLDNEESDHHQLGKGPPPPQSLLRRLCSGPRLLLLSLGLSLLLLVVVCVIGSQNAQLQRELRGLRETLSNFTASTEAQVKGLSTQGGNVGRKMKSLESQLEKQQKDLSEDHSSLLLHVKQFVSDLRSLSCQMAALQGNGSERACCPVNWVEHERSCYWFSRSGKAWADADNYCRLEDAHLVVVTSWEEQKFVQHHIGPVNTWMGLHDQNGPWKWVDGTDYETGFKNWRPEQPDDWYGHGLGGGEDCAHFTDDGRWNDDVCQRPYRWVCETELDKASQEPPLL

T2: Pig ASGR-1 (pig)
T2 construct: Expressed on HEK 293 cells or as membrane prep on beads; cDNA GenBank NM_001244458
T2 chain: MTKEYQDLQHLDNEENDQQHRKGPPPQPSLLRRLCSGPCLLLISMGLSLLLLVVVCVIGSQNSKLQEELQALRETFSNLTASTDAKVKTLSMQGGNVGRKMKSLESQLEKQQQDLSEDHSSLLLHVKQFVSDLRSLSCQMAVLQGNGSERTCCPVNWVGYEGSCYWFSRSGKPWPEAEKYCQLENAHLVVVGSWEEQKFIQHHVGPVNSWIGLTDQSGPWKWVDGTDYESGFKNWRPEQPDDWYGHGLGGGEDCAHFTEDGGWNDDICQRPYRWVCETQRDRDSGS

B1: 26C4 (antibody, V domains shown)
VH: QVQLVQSGAEVKKPGASVKVSCKASGYTFTNYDINWVRQASGQGLEWMGWMNPNSGNTGYAQRFQGRVTMTRNTSINTAYMELSSLRSEDTAVYYCASSSGWYYFDYWGQGTLVTVSS
VL: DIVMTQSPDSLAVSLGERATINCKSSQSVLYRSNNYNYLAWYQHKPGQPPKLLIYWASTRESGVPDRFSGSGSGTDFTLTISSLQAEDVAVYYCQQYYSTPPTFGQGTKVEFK
notes: Tested as hybridoma supernatant at normalized concentration
B2: 4A2 (antibody, V domains shown)
VH: B1 VH with A9T, S41T, N52H, R63K, M70L, N77S
VL: DIVMTQSPDSLAVSLGERATINCKSSQSILHSSNNNNYLAWFQQKPGQPPKLLLYWASTRESGVPDRFSGSGSGTDFTLTISSLQPEDVAVYYCQQYYNTPVTFGPGTKVGIK
notes: as for B1
B3: 29H8 (antibody, V domains shown)
VH: B1 VH with K12Q, S41T, N77S, T78A
VL: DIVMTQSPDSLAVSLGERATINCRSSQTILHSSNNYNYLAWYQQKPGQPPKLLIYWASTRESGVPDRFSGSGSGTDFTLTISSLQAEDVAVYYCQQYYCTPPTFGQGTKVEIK
notes: as for B1
B4: 4H6 (antibody, V domains shown)
VH: QVQLVQSGAEVKKPGASVKVSCKASGYTFTDYYLHWVRQAPGQGLEWMGWIHPNSGGTNYAQKFQGRVTMTRDTSISTAYMGLSSLRSDDTAVYYCARDGTSSFDYWGQGTLVTVSS
VL: DIQMTQSPSSVSASVGDRVTITCRASQGISRWLAWYQQKPGKAPKLLIYGASSLQSGVPSRFSGSGSGTDFTLTISSLQPEDFAIYYCQQANSFPFTFGPGTKVDIK
notes: as for B1
B5: 72G9 (antibody, V domains shown)
VH: EVQLVESGGGLVKPGGSLRLSCAASGFTFSSYSMNWVRQAPGKGLEWVSSISGSSSYIYYADSVKGRFTISRDNAKNSLYLQMNSLRAEDTAVYFCARGGSRGFDPWGQGTLVTVSS
VL: B4 VL with V11L, G28S, S30T, R31S, W32Y, A34N, G50T, I85T, A91S, N92H
notes: as for B1
B6: 56E5 (antibody, V domains shown)
VH: QVQLVQSGAEVKKPGASVKVSCQASGYTFTGYHMHWVRQAPGQGLEWMGWINPNNNATNYAQKFQGRVTMTRDTSISTAYMELRRLRSDDTAVYHCARDGTSSFDYWGQGTLVTVSS
VL: B4 VL with S30R, R31K, G50A, I85T
notes: as for B1
B7: 4B1 (antibody, V domains shown)
VH: QVQLQESGPGLVKPSETLSLTCSVSGDSISSYSWSWIRQPAGKGLEWIGRIYTSGSTNYIPSLKSRITMSVDTSKKQFSLKLSSVTAADTAVYYCARDLKSSGCLFFDYWGQGTLVTVSS
VL: DIQMTQSPSSLSASVGDRVTITCRASHTIRTYLNWYQQKPGKAPKLLIYAASSLQSGVPSRINGSGSGTDFTLTITNLQPEDFATYYCQQSYNISFTFGPGTKVDIK
notes: as for B1
B8: 194A4 (antibody, V domains shown)
VH: QVQLVQSGTEVKKPGASLKVSCKASGYTFTVYYLNWVRQAPGQGLEWMGWINPNSGGTNYAQKFQGRVTMTRDTSISTAYMELSRLRSDDTAVYYCARGYDILTGWGQGTLVTVSS
VL: EIVLTQSPGTLSLSPGERATLSCRASRGVSNIYLAWYQQKPGQAPRLLIYGASNRATGIPDRFSGSGSGTDFTLTISRLEPEDFAVYYCQHNDYSMFTFGPGTKVDIK
notes: as for B1
B9: 184E7 (antibody, V domains shown)
VH: QVQLVQSGAEVKTPGASVKVSCRASGYTFTSYNMHWVRQVPGQGLEWMGWINPNNGGSNYTQKFQGRVTMTRDTSISTAYMELSRLRSDDTAVYYCARKFGDWGQGTLVTVSS
VL: DIQMTQSPSSRSASIGERVTITCRASQGISNYLAWIQQKPGTAPKSLIYAASSLQSGVSSRFSGSGFGTDFTITISSVQREDFATYYCQQYNGYPFTFGHGTKVDIK
notes: as for B1
B10: 48B12 (antibody, V domains shown)
VH: EVQLLESGGGLVQPGGSLRLSCAASGFTFSSYAMNWVRQAPGKGLEWVSAISGRGGNTFYADSVKGRFTISRDNSKNTLYLQMNSLRAEDTAVYYCAKRETYNWNYEGFDYWGQGTLVTVSS
VL: SYELTQPPSVSVSPGQTARITCSGDALPKKYAYWYQQKSGQAPVLVIYEDSKRPSGIPERFSGSSSGTMATLTISGAQVEDEADYYCNSTDSSGNHVVFGGGTKLTVL
notes: as for B1

Changes are numbered by the printed parent chain.

The target of the first experiment is T1, Cyno ASGR-1. As to the kind of experiment: FACS on transfected HEK 293 cells or membrane preps on beads; Y = signal at least 2x irrelevant IgG. The procedure, abridged:
(§1)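 Antibodies at normalized concentrations bound 1 h at 4° C to HEK 293 cells expressing each antigen, then Alexa Fluor 647 anti-Fc plus 7-AAD 15 min at 4° C, flow cytometry; empty-vector cells as negative. Alternatively, species ASGR-1 membrane preps on streptavidin beads, antibody 1 h RT, Alexa Fluor 488 anti-Fc; FACS buffer with 1 mM CaCl2 throughout.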
Turning to B1, the binding result is given as “binds”.
Turning to B2, the binding result was “binds”.
For B3, the binding result is given as “binds”.
Consider B4, for which the binding result is reported as “binds”.
On the same count and under the same terms, next, B5: “binds”.
As to B6, the binding result is given as “binds”.
On the same count and under the same terms, in the case of B7 it was “binds”; in that of B8, “binds”; in that of B9, “binds”.
As to B10, the binding result is listed as “binds”.

The next experiment deals with T2, Pig ASGR-1. The description is as above. The procedure, abridged: as §1
As to B1, the binding result is “binds”.
As to B2, the binding result was “binds”.
As for B3, the binding result is reported as “binds”.
Regarding B4, the binding result was “binds”.
For B5, the binding result is on record as “binds”.
Regarding B6, the binding result is listed as “binds”.
Consider B7, for which the binding result is “binds”.
Regarding B8, the binding result is listed as “binds”.
Regarding B9, the binding result is given as “binds”.
As to B10, the binding result is recorded as “binds”.
